The record followed here is patent US20120100139A1 (APTEVO RESEARCH AND DEVELOPMENT, published 2012).

In experiment [1] the target is T1, CD86 on cells (WIL2-S human B-lymphoblastoid cells; HuCD86-2A2 CHO cells expressing CD86) (human, UniProt P42081 24-329).
T1 construct: whole, on cells; also called cell surface CD86
T1 sequence (looked up): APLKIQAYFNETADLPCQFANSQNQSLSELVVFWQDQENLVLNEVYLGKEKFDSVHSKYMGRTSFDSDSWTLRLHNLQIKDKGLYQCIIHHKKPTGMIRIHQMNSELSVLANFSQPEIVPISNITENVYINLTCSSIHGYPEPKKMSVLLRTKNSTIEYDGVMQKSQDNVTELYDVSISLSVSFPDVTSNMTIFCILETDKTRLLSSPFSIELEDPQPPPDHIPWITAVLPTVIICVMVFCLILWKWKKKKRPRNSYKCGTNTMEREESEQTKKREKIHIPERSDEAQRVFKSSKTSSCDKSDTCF
Briefly: flow cytometry on WIL2-S cells. The procedure: (§1) Briefly, WIL2-S or HuCD86-2A2 cells were incubated with test molecules containing a CD86 antagonist at concentrations ranging from saturation to background levels. […] After the incubation, cells were washed and a fluorophore (R-phycoerythrin) tagged F(Ab′)₂ antibody specific for the Fc portion of the xceptor molecule, IL10R-Ig fusion protein, or anti-IL10 antibody. The tagged cells were then passed through a flow cytometer and data was analyzed by plotting median fluorescence intensity of each sample.

The target in the next experiment is T2, CD86-mIgG (Ancell, Inc) (UniProt P42081 24-247, limits assumed).
T2 construct: Bought reagent
T2 sequence (looked up): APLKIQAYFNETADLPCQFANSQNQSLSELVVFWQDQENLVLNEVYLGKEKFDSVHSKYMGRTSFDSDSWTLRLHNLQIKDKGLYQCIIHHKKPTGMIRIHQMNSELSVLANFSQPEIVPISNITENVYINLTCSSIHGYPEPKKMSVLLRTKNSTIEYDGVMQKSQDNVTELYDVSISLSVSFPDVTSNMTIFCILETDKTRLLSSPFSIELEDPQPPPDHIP
The experiment is described as follows: SPR, CD86-mIgG immobilized; reference of the comparison. On the technique in general: SPR reads the build-up and loss of mass on a sensor chip optically.

In experiment [2] the target is T1, CD86 on cells (WIL2-S human …). The experiment is described as follows: flow cytometry, HEK293 supernatants on HuCD86-2A2 cells. The procedure: as §1
In another experiment, different versions of humanized FUN1 SMIPs were tested for CD86 binding. Supernatants of HEK293 cells transiently transfected with the six different versions of humanized FUN1 SMIPs were examined for CD86 binding using HuCD86-2A2 cells.
(A flow cytometer gives signals particle by particle.)

B1: FUN1::IL10 xceptor (Fc fusion)
chain: EVQLQQSGPELEKPGASVKISCKASGYSFTDYNMNWVKQSNGKSLEWIGNIDPYYGGTSYNQKFKGKATLTVDKSSSTAYMQLNSLTSEDSAVYFCARWDYRYDDGRAYYVMDFWGQGTSVTVSSGGGGSGGGGSGGGGSGGGGSELQMTQSPSSLAASAGEKVTMSCKSSQSVLYSSNQKNYLAWYQQKPGQSPKLLIYWASTRESGVPDRFTGSGSGTHFTLTVSSVQAEDLAVYYCHQYLYSWTFGGGTNLEIKRLEPKSSDKTHTCPPCPAPEAAGAPSVFLFPPKPKDTLMISRTPEVTCVVVDVSHEDPEVKFNWYVDGVEVHNAKTKPREEQYNSTYRVVSVLTVLHQDWLNGKAYACAVSNKALPAPIEKTISKAKGQPREPQVYTLPPSRDELTKNQVSLTCLVKGFYPSDIAVEWESNGQPENNYKTTPPVLDSDGSFFLYSKLTVDKSRWQQGNVFSCSVMHEALHNHYTQKSLSLSPGNSLFNQEVQIPLTESYSPNSSPGQGTQSENSCTHFPGNLPNMLRDLRDAFSRVKTFFQMKDQLDNLLLKESLLEDFKGYLGCQALSEMIQFYLEEVMPQAENQDPDIKAHVNSLGENLKTLRLRLRRCHRFLPCENKSKAVEQVKNAFNKLQEKGIYKAMSEFDIFINYIEAYMTMKIRN
notes: anti-CD86 FUN1 scFv - Fc - IL10
B1: the binding result in experiment [1] is on record as “binds”; in the experiment with CD86-mIgG (Ancell, Inc), “binds”.

B2: FUN1-22 humanized FUN1 SMIP (Fc fusion)
chain: QVQLVQSGAEVKKPGASVKVSCKASGYTFTDYNMNWVRQAPGQGLEWMGNIDPYYGGTSYNQKFKGRVTMTRDTSISTAYMELSRLRSDDTAVYYCARWDYRYDDGRAYYVMDFWGQGTTVTVSSGGGGSGGGGSGGGGSGGGGSDIQMTQSPSSLSASVGDRVTITCKSSQSVLYSSNQKNYLAWYQQKPGKVPKLLIYWASTRESGVPSRFSGSGSGTDFTLTISSLQPEDVATYYCHQYLYSWTFGQGTKLEIKRLEPKSSDKTHTCPPCPAPEAAGAPSVFLFPPKPKDTLMISRTPEVTCVVVDVSHEDPEVKFNWYVDGVEVHNAKTKPREEQYNSTYRVVSVLTVLHQDWLNGKAYACAVSNKALPAPIEKTISKAKGQPREPQVYTLPPSRDELTKNQVSLTCLVKGFYPSDIAVEWESNGQPENNYKTTPPVLDSDGSFFLYSKLTVDKSRWQQGNVFSCSVMHEALHNHYTQKSLSLSPG
notes: SMIP: scFv-hinge-Fc single chain
With B2, the binding result in experiment [2] is listed as “binds”.
